Test results published in US20200283521A1 (GRANULAR THERAPEUTICS, published 2020).

Key:
hDR3-Fc = target: T1, hDR3-Fc (human, UniProt Q93038); assay: direct ELISA on coated protein, IgG1
T1 construct: Fc fusion; member of the panel m9
T1 sequence (looked up): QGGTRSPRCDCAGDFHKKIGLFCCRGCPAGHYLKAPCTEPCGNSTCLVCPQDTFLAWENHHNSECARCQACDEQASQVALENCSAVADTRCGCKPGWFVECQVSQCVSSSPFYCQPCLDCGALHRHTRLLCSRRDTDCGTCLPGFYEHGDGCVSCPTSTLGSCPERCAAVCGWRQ

hVCAM-Fc = target: T2, hVCAM-Fc; assay: direct ELISA on coated protein, IgG1
T2 construct: member of the panel m9
T2 chain: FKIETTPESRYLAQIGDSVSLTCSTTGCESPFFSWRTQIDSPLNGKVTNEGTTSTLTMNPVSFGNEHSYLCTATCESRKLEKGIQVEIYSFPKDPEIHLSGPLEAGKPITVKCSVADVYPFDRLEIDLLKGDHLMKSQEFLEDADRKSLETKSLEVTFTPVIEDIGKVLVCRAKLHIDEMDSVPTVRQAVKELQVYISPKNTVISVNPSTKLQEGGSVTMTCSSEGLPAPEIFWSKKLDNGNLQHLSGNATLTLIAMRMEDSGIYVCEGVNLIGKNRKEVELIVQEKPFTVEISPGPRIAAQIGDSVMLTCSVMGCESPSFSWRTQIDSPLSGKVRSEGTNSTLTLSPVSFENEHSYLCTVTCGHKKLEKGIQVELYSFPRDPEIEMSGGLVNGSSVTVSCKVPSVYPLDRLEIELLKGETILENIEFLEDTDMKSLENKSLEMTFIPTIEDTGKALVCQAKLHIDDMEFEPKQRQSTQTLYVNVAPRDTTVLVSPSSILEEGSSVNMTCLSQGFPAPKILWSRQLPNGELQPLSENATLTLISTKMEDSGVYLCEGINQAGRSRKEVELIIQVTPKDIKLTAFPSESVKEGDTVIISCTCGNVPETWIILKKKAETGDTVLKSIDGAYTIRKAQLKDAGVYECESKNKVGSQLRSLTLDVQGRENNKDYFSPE

h4-1BB-Fc = target: T3, h4-1BB-Fc; assay: direct ELISA on coated protein, IgG1
T3 construct: member of the panel m9

hOX40-Fc = target: T4, hOX40-Fc; assay: direct ELISA on coated protein, IgG1
T4 construct: member of the panel m9
T4 chain: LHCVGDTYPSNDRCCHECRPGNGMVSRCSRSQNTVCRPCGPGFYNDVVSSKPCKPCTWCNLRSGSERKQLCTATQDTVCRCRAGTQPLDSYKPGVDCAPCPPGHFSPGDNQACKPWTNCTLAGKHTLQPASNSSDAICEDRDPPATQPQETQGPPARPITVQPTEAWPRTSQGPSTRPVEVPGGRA

hLTBR-Fc = target: T5, hLTBR-Fc (human, UniProt P36941); assay: direct ELISA on coated protein, IgG1
T5 construct: Fc fusion; member of the panel m9

hEpCAM-Fc = target: T6, hEpCAM-Fc (human, UniProt P16422); assay: direct ELISA on coated protein, IgG1
T6 construct: Fc fusion; member of the panel m9
T6 sequence (looked up): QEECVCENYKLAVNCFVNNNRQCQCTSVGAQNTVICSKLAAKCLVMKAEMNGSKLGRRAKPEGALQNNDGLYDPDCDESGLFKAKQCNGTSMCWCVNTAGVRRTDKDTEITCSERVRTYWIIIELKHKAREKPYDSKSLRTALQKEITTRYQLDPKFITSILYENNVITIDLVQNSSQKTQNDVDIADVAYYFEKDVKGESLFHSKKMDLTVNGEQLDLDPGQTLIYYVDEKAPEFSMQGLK

hVCAM-1 = target: T7, hVCAM-1 (human, UniProt P19320); assay: direct ELISA on coated protein, IgG1
T7 construct: purified recombinant protein; member of the panel m9
T7 sequence (looked up): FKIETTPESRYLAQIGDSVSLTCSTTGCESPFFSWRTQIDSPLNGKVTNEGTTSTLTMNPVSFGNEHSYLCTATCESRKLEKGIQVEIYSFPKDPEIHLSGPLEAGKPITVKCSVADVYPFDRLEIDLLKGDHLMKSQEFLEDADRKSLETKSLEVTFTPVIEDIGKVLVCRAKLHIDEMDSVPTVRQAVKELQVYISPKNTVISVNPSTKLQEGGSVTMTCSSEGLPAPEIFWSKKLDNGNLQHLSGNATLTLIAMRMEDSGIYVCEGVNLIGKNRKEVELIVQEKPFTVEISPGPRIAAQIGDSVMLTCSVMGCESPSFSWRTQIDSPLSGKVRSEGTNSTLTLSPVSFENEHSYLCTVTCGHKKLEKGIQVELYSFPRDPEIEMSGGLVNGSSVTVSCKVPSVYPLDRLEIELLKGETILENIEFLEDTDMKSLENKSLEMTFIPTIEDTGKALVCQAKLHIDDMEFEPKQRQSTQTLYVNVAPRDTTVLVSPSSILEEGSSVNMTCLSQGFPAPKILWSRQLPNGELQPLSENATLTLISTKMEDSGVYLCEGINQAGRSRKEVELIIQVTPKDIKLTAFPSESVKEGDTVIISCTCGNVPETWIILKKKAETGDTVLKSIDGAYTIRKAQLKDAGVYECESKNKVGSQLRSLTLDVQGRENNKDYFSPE

hTWEAK-Fc = target: T8, hTWEAK-Fc (human, UniProt O43508); assay: direct ELISA on coated protein, IgG1
T8 construct: Fc fusion; member of the panel m9
T8 sequence (looked up): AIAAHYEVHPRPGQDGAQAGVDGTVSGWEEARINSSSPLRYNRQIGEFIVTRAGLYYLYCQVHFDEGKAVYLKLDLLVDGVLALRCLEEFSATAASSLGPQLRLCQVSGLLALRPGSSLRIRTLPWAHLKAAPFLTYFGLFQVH

hDR6-Fc = target: T9, hDR6-Fc (human, UniProt O75509); assay: direct ELISA on coated protein, IgG1
T9 construct: Fc fusion; member of the panel m9
T9 sequence (looked up): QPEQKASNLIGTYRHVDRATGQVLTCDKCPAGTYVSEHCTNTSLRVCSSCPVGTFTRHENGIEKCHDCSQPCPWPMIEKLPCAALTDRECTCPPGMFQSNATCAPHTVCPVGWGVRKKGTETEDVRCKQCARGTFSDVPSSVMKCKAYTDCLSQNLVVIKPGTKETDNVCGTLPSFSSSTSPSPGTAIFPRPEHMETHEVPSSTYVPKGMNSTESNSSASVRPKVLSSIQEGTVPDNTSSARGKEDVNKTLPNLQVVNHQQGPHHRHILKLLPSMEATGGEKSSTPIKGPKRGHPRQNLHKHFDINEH

OSM = target: T10, OSM (human, UniProt P13725); assay: cell array, transfected fixed HEK293 cells
T10 construct: expressed in transfected HEK293 cells
T10 sequence (looked up): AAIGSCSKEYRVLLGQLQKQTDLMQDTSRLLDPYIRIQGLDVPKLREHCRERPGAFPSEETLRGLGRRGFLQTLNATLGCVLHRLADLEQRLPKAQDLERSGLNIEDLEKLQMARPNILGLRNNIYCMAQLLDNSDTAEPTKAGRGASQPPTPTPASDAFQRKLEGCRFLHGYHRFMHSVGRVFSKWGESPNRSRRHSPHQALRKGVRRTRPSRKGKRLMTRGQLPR
Procedure: (§1) Transfection of all plasmids was confirmed by screening for the co-encoded marker ZS green (FIG. 13A).
(§2) Primary hits (duplicate spots) were identified by analysing fluorescence (AF647 and ZsGreenl) on ImageQuant. Vectors encoding all hits were sequenced to confirm their correct identities. […] Slides were analysed as above.

EGFR = target: T11, EGFR (human, UniProt P00533); assay: cell array, transfected fixed HEK293 cells
T11 construct: expressed in transfected HEK293 cells
Procedure: as §1, §2

T5 sequence (P36941 28-227 limits assumed): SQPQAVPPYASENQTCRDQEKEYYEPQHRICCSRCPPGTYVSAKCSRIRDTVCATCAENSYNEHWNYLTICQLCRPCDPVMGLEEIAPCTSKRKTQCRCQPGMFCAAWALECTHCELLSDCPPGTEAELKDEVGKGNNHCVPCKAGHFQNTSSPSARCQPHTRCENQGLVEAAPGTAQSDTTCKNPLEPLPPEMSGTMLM
T3 sequence (chain, as listed by the source limits assumed): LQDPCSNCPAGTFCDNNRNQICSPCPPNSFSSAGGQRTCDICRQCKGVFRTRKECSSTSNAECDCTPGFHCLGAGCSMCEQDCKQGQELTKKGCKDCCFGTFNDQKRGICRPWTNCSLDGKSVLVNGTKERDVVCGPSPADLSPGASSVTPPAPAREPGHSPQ

binding result (hDR3-Fc): no binding (tested: 1 µg/ml)
binding result (hVCAM-Fc): no binding (tested: 1 µg/ml)
binding result (h4-1BB-Fc): no binding (tested: 1 µg/ml)
binding result (hOX40-Fc): no binding (tested: 1 µg/ml)
binding result (hLTBR-Fc): no binding (tested: 1 µg/ml)
binding result (hEpCAM-Fc): no binding (tested: 1 µg/ml)
binding result (hVCAM-1): no binding (tested: 1 µg/ml)
binding result (hTWEAK-Fc): no binding (tested: 1 µg/ml)
binding result (hDR6-Fc): no binding (tested: 1 µg/ml)
binding result (OSM): no binding (tested: 2 µg/ml)
binding result (EGFR): no binding (tested: 2 µg/ml)
B1: humanized h37M, human IgG1 (antibody, V domains shown)
VH: QVQLVQSGAEVKKPGASVKLSCKASGYTFTDYYINWVRQAPGKGLEWIARIYPGSGNTYYNEKFKGRATLTADKSTSTAYMQLSSLRSEDTAVYFCARGVYYFDYWGQGTTVTVSS
VL: DIVMTQSPSSLSASVGDRVTITCKASQNVRTNVAWYQQKPGKAPKALIYSASYRYSGVPDRFTGSGSGTDFTLTISSLQPEDFADYFCQQYNSYPRTFGGGTKVEIK
notes: human IgG1; terbium-labelled as the tracer of the HTRF assays; also called C-KIT-h37M; h37M-IgG1
